Results taken from patent publication US20050037965A1.

Biological target: human p21-activated kinase 1 (PAK1) (human) (UniProt Q13153)
Assay: cell-based or functional assay

Q: What does the source list for “PAK1 inhibitory domain (PAK1-ID), HA-tagged PAK1 residues 83 to 149”?
A: inhibition of IL-1β induced expression of PGE2 in SW1353 cells (ELISA of supernatants): > 50%; inhibition of IL-1β-induced expression of MMP13 in SW1353 cells (ELISA of supernatants): 55%; inhibition of basal MMP13 expression in non-stimulated SW1353 cells (ELISA of supernatants): > 80%
